Legend:
[1] = system: human breast and ovary tumors; assay: Custom gene array, breast and ovary tumors versus normal adjacent tissue; conditions: Table 19
Description: A study has been performed to examine the expression of these genes in a selection of breast and ovary tumors, comparing expression with normal adjacent tissue from the same patient. There is expected to be a large degree of variation between different patients, and the study here contains only 5 patients with a range of diagnoses.
Patients are designated as Letters:
E: person. Diagnosis: ovarian adenocarcinoma. Normal ovarian tissue derived from an age-matched separate individual.
: person. Diagnosis: poorly differentiated adenocarcinoma. Normal ovarian tissue derived from the same individual.
G: person. Diagnosis: moderately-differentiated adenocarcinoma. Normal ovarian tissue derived from the same individual.
H: person. Diagnosis: invasive ductal carcinoma. Normnal breast tissue derived from the same individual.
K: person. Diagnosis: invasive ductal carcinoma. Normal breast tissue derived from the same individual.
Data normalisation was done per-chip to correct for differences in labelling and hybridization efficiency. Per-gene normalisation was done such that the expression values of each gene are relative to the median value of that gene throughout the series of samples. By comparing the expression values under normal (nor) and tumor (turn) for a single patient, differences in expression between the normal and malignant tissue of that patient can be inferred.

[2] = system: primary human cell cultures (11 cell types); assay: Custom gene array, 11 human cell types in normoxia or hypoxia for 6 hr and 18 hr; type: cell-based; conditions: for mRNA expression level, #1 HY 6 hr: cell type #1, hypoxia 6 hr; for mRNA expression level, #1 HY 18 hr: cell type #1, hypoxia 18 hr; for mRNA expression level, #1 NO: cell type #1, normoxia; for mRNA expression level, #2 HY 6 hr: cell type #2, hypoxia 6 hr; for mRNA expression level, #2 HY 18 hr: cell type #2, hypoxia 18 hr; for mRNA expression level, #2 NO: cell type #2, normoxia; for mRNA expression level, #3 HY 6 hr: cell type #3, hypoxia 6 hr; for mRNA expression level, #3 HY 18 hr: cell type #3, hypoxia 18 hr; for mRNA expression level, #3 NO: cell type #3, normoxia; for mRNA expression level, #4 HY 6 hr: cell type #4, hypoxia 6 hr; for mRNA expression level, #4 HY 18 hr: cell type #4, hypoxia 18 hr; for mRNA expression level, #4 NO: cell type #4, normoxia; for mRNA expression level, #5 HY 6 hr: cell type #5, hypoxia 6 hr; for mRNA expression level, #5 NO: cell type #5, normoxia; for mRNA expression level, #6 HY 6 hr: cell type #6, hypoxia 6 hr; for mRNA expression level, #6 NO: cell type #6, normoxia;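 on mRNA expression level, #1 HY 18 hr: cell type #1 is adipocyte from subcutaneous adult adipose tissue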;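 on mRNA expression level, #1 HY 6 hr: cell type #1 is adipocyte from subcutaneous adult adipose tissue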;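 on mRNA expression level, #1 NO: cell type #1 is adipocyte from subcutaneous adult adipose tissue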;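 on mRNA expression level, #2 HY 18 hr: cell type #2 is fetal cardiomyocyte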;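 on mRNA expression level, #2 HY 6 hr: cell type #2 is fetal cardiomyocyte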;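 on mRNA expression level, #2 NO: cell type #2 is fetal cardiomyocyte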;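 on mRNA expression level, #3 HY 6 hr: cell type #3 is human umbilical vein endothelial cells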;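 on mRNA expression level, #3 NO: cell type #3 is human umbilical vein endothelial cells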;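 on mRNA expression level, #4 HY 18 hr: cell type #4 is adult dermal fibroblast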;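 on mRNA expression level, #4 HY 6 hr: cell type #4 is adult dermal fibroblast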;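 on mRNA expression level, #4 NO: cell type #4 is adult dermal fibroblast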;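 on mRNA expression level, #5 HY 6 hr: cell type #5 is adult hepatocyte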;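 on mRNA expression level, #5 NO: cell type #5 is adult hepatocyte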;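 on mRNA expression level, #6 HY 6 hr: cell type #6 is blood-derived macrophage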;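 on mRNA expression level, #6 NO: cell type #6 is blood-derived macrophage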
Experimental: Equivalent cultures of non-immortalized, non-transformed primary human cells of 10 distinct types, were cultured in either normoxia or were exposed to hypoxia for 6 hr and 18 hr, and gene expression changes were determined. […] Moreover, unlike the vast majority of information in the public domain relating to genes responsive to hypoxia, all of these cells were human and were cultured without any modifications following isolation from the human donors.
A non-primary cell type (#9) was used to represent neurons, since primary human neurons are difficult to source. Therefore a total of 11 cell types are compared. It should be noted that RNA from hepatocytes at the […] timepoint of hypoxia was not available for this work.
Each RNA sample was hybridised to duplicate or triplicate arrays, to ensure reproducible data, and was analysed using GeneSpring software. Data from replicate arrays were merged during analysis to generate mean values. Data normalisation was achieved per-array using the aforementioned list of control genes, such that differences in RNA labelling or hybridization due to experimental variation were corrected by referencing each gene to the mean value of the reference genes on the same array. Also, for each gene, expression values were obtained which represent the value in each experimental condition (e.g. macrophages 6 hr hypoxia) as compared to the median of value of that gene throughout the full range of experimental conditions (i.e. from all cell types). […] This is common in microarray data analysis.

Row | Molecule | mRNA expression level, #1 HY 6 hr [2] | mRNA expression level, #1 HY 18 hr [2] | mRNA expression level, #1 NO [2] | mRNA expression level, #2 HY 6 hr [2] | mRNA expression level, #2 HY 18 hr [2] | mRNA expression level, #2 NO [2] | mRNA expression level, #3 HY 6 hr [2] | mRNA expression level, #3 HY 18 hr [2] | mRNA expression level, #3 NO [2] | mRNA expression level, #4 HY 6 hr [2] | mRNA expression level, #4 HY 18 hr [2] | mRNA expression level, #4 NO [2] | mRNA expression level, #5 HY 6 hr [2] | mRNA expression level, #5 NO [2] | mRNA expression level, #6 HY 6 hr [2] | mRNA expression level, #6 NO [2] | also measured
1 | p1K9 (nucleic acid, listed as Homo Sapiens) DNA: AGTGTGAAATCTTCAGAGAAGAATTTCTCTTTAGTTCTTTGCAAGAAGGTAGAGATAAAGACACTTTTTCAAAAATGGCAATGGTATCAGAATTCCTCAAGCAGGCCTGGTTTATTGAAAATGAAGAGCAGGAATATGTTCAAACTGTGAAGTCATCCAAAGGTGGTCCCGGATCAGCGGTGAGCCCCTATCCTACCTTCAATCCATCCTCGGATGTCGCTGCCTTGCATAAGGCCATAATGGTTAAAGGTGTGGATGAAGCAACCATCATTGACATTCTAACTAAGCGAAACAATGCACAGCGTCAACAGATCAAAGCAGCATATCTCCAGGAAACAGGAAAGCCCCTGGATGAAACACTTAAGAAAGCCCTTACAGGTCACCTTGAGGAGGTTGTTTTAGCTCTGCTAAAAACTCCAGCGCAATTTGATGCTGATGAACTTCGTGCTGCCATGAAGGGCCTTGGAACTGATGAAGATACTCTAATTGAGATTTTGGCATCAAGAACTAACAAAGAAATCAGAGACATTAACAGGGTCTACAGAGAGGAACTGAAGAGAGATCTGGCCAAAGACATAACCTCAGACACATCTGGAGATTTTCGGAACGCTTTGCTTTCTCTTGCTAAGGGTGACCGATCTGAGGACTTTGGTGTGAATGAAGACTTGGCTGATTCAGATGCCAGGGCCTTGTATGAAGCAGGAGAAAGGAGAAAGGGGACAGACGTAAACGTGTTCAATACCATCCTTACCACCAGAAGCTATCCACAACTTCGCAGAGTGTTTCAGAAATACACCAAGTACAGTAAGCATGACATGAACAAAGTTCTGGACCTGGAGTTGAAAGGTGACATTGAGAAATGCCTCACAGCTATCGTGAAGTGCGCCACAAGCAAACCAGCTTTCTTTGCAGAGAAGCTTCATCAAGCCATGAAAGGTGTTGGAACTCGCCATAAGGCATTGATCAGGATTATGGTTTCCCGTTCTGAAATTGACATGAATGATATCAAAGCATTCTATCAGAAGATGTATGGTATCTCCCTTTGCCAAGCCATCCTGGATGAAACCAAAGGAGATTATGAGAAAATCCTGGTGGCTCTTTGTGGAGGAAACTAAACATTCCCTTGATGGTCTCAAGCTATGATCAGAAGACTTTAATTATATATTTTCATCCTATAAGCTTAAATAGGAAAGTTTCTTCAACAGGATTACAGTGTAGCTACCTACATGCTGAAAAATATAGCCTTTAAATCATTTTTATATTATAACTCTGTATAATAGAGATAAGTCCATTTTTTAAAAATGTTTTCCCCAAACCATAAAACCCTATACAAGTTGTTCTAGTAACAATACATGAGAAAGATGTCTATGTAGCTGAAAATAAAATGACGTCACAAGAC |  |  |  |  |  |  |  |  |  |  |  |  |  |  |  |  | gene expression level on custom gene array, Breast nor H ([1]; breast, normal adjacent tissue, patient H): 1.20; gene expression level on custom gene array, Breast nor K ([1]; breast, normal adjacent tissue, patient K): 0.23; gene expression level on custom gene array, Breast tum H ([1]; breast, tumor tissue, patient H): 0.54; gene expression level on custom gene array, Breast tum K ([1]; breast, tumor tissue, patient K): 0.12; gene expression level on custom gene array, Ovary nor E ([1]; ovary, normal adjacent tissue, patient E): 0.46; gene expression level on custom gene array, Ovary nor F ([1]; ovary, normal adjacent tissue, patient F): 1.33; gene expression level on custom gene array, Ovary nor G ([1]; ovary, normal adjacent tissue, patient G): 1.07; gene expression level on custom gene array, Ovary tum E ([1]; ovary, tumor tissue, patient E): 4.09; gene expression level on custom gene array, Ovary tum F ([1]; ovary, tumor tissue, patient F): 1.17; gene expression level on custom gene array, Ovary tum G ([1]; ovary, tumor tissue, patient G): 0.31
2 | p1E11 (nucleic acid, listed as Homo Sapiens, EST array clone; misc_feature 12, 13, 317, 330, 366: n = A,T,C or G) DNA: TCTCTACAAATNNCTATAACAAAACTTTTTAGGAAAGTACCACAAATATGTTAAACAGAAGAAGCAAATCTCAAATAATGTGCAAAAGCTGTGAGTTTCTTCTTACATAAAACTGGTACCTAAGCAAGTGAGGGTTCATTTTATTTTTCACTCACCAATCCCCATATCATTATACAGTAACACCATACAGCCAAAACGGCCATGATATTCCTCCCTTCTCAGCCAAAATTGGGCAAGAGAGAATGACCCTTGTAGGGGAAAAGAAACCTCTACGATAAACTGAAATGCCACCATCAGGGTTTGTTGAAACTGTAGGNACAGGGTCTACGNCTCACTTAGCTGCTAATGAGTTTCTATGGTTCCAGNTGGGGTAGTTCAAAGTA | 1.12 | 0.87 | 1.36 | 2.86 | 3.03 | 2.09 | 0.91 | 0.88 | 0.74 | 0.59 | 0.79 | 0.89 | 2.09 | 0.77 | 2.97 | 2.76 | #6 HY 18 hr (mRNA expression level) ([2]; cell type #6, hypoxia 18 hr): 2.90; #7 HY 6 hr (mRNA expression level) ([2]; cell type #7, hypoxia 6 hr): 0.64; #7 HY 18 hr (mRNA expression level) ([2]; cell type #7, hypoxia 18 hr): 0.34; #7 NO (mRNA expression level) ([2]; cell type #7, normoxia): 0.63; #8 HY 6 hr (mRNA expression level) ([2]; cell type #8, hypoxia 6 hr): 1.47; #8 HY 18 hr (mRNA expression level) ([2]; cell type #8, hypoxia 18 hr): 1.35; #8 NO (mRNA expression level) ([2]; cell type #8, normoxia): 0.64; #9 HY 6 hr (mRNA expression level) ([2]; cell type #9, hypoxia 6 hr): 1.16; #9 HY 18 hr (mRNA expression level) ([2]; cell type #9, hypoxia 18 hr): 0.64; #9 NO (mRNA expression level) ([2]; cell type #9, normoxia): 1.18; #10 HY 6 hr (mRNA expression level) ([2]; cell type #10, hypoxia 6 hr): 0.79; #10 HY 18 hr (mRNA expression level) ([2]; cell type #10, hypoxia 18 hr): 0.88; #10 NO (mRNA expression level) ([2]; cell type #10, normoxia): 0.74; #11 HY 6 hr (mRNA expression level) ([2]; cell type #11, hypoxia 6 hr): 2.49; #11 HY 18 hr (mRNA expression level) ([2]; cell type #11, hypoxia 18 hr): 1.93; #11 NO (mRNA expression level) ([2]; cell type #11, normoxia): 1.79; HIGHEST FOLD CHANGE IN HYPOXIA (hr hypoxia + cell type) ([2]; hypoxia/normoxia induction ratio, 6 hr hepatocyte): 2.73 (6 hr hepatocyte) fold
3 | p2A24 (nucleic acid, listed as Homo Sapiens) DNA: TTTTTTTTTATTTGGATTCTATTTATTTAAAATTAAATTCTTTGCAAAATTGAACTTCTCAACTAAAACGTGTCCATGTCAGAATTTTAACTGTTAGCAGGTAGTTTGTGGCAAAGATGGCTAAATAATGAAGCAAATTAGAATCTGTGTGTATACTAATGAGCTGCTTTTTTTCTGTTGAGACTATCATTATTTGTCTTATTACCCAAGAGGCAATTACCTGAATTTGGATGTCTGAATTATAACTTATGCAGGAATAGTTCTGTAAATACATTTAAATAAACTGTAAAGATATTTAATAAATATAGTATTTATACTAATCTGTGTGCTTCTTTTGGTTTGAATAGTAACTAAATGAGACACCAGCCCTTGACATTGAGTTTGTTGGTCACTATCAGGTCCTCATTTCCAAGCCTCCTAGTCATTCTAGCACTGATTATATGCTGCTACTTTAACTGGCTCCAGCTGCTTCACTACATCAGTTTAGCTTCCTCAGAAATTCATCAAAATGGACGGACAATTAAATGTAAATTATAGAACTTTTTCCCAGCTGAGGCTTTGCACCTTCCGTATAGTATAGAGGGAAGCTACAAAAA | 0.65 | 0.67 | 1.21 | 2.21 | 2.48 | 2.42 | 3.05 | 2.59 | 2.35 | 0.76 | 0.68 | 1.10 | 0.91 | 0.68 | 0.22 | 0.28 | HIGHEST FOLD CHANGE IN HYPOXIA (hr hypoxia + cell type) ([2]; DOWN, 18 hr adipocyte): 1.85 DOWN (18 hr adipocyte) ^ fold

From patent US20030203372A1, “Analysis method” (priority 2000, published 2003)
